Experiments:
HLA-B*15:01 = experiment: IEDB peptide-MHC binding, purified MHC/direct/fluorescence; filed as Kd, often an IC50 or EC50 that approximates it; ≥ and ≤ were set here for values at or beyond the usual limits of such assays; details: source organism: Rickettsia conorii
HLA-A*31:01 [1] = experiment: as above
HLA-A*11:01 = experiment: as above; details: source organism: Rickettsia conorii
HLA-A*03:01 [2] = experiment: as above
HLA-A*02:01 [3] = experiment: as above; details: source organism: Rickettsia conorii
HLA-A*69:01 = experiment: as above; details: source organism: Rickettsia conorii
HLA-B*58:01 = experiment: as above; details: source organism: Rickettsia conorii
HLA-B*40:01 = experiment: IEDB peptide-MHC binding, purified MHC/competitive/radioactivity; filed as Kd, often an IC50 or EC50 that approximates it; ≥ and ≤ were set here for values at or beyond the usual limits of such assays
HLA-B*44:02 = experiment: as above
HLA-B*44:03 = experiment: as above
HLA-B*40:02 = experiment: as above; details: source organism: SARS coronavirus Tor2
HLA-B*18:01 = experiment: as above; details: source organism: SARS coronavirus Tor2
HLA-B*45:01 = experiment: as above; details: source organism: SARS coronavirus Tor2
HLA-B*53:01 = experiment: as above
HLA-A*30:01 = experiment: as above
HLA-A*02:01 [4] = experiment: IEDB peptide-MHC binding, purified MHC/competitive/fluorescence; filed as Kd, often an IC50 or EC50 that approximates it; ≥ and ≤ were set here for values at or beyond the usual limits of such assays; details: source organism: Vaccinia virus WR 65-16
HLA-A*31:01 [5] = experiment: IEDB peptide-MHC binding, purified MHC/competitive/radioactivity; filed as Kd, often an IC50 or EC50 that approximates it; ≥ and ≤ were set here for values at or beyond the usual limits of such assays
HLA-A*03:01 [6] = experiment: as above
HLA-A*33:01 = experiment: as above
HLA-A*68:01 = experiment: as above
HLA-B*35:01 = experiment: as above; details: source organism: Dengue virus 4 Philippines/H241/1956
HLA-A*24:02 [7] = experiment: IEDB peptide-MHC binding, purified MHC/competitive/fluorescence; ≥ and ≤ were set here for values at or beyond the usual limits of such assays
HLA-A*02:01 [8] = experiment: as above; details: source organism: Variola virus
HLA-A*01:01 = experiment: IEDB peptide-MHC binding, purified MHC/competitive/radioactivity; filed as Kd, often an IC50 or EC50 that approximates it; ≥ and ≤ were set here for values at or beyond the usual limits of such assays
HLA-A*32:01 = experiment: as above
HLA-A*29:02 = experiment: as above
HLA-A*30:02 = experiment: as above
HLA-A*26:01 = experiment: as above
HLA-A*24:02 [9] = experiment: as above; details: source organism: Lymphocytic choriomeningitis virus (strain Armstrong)
HLA-A*23:01 = experiment: as above; details: source organism: Lymphocytic choriomeningitis virus (strain Armstrong)
[10] = source organism: Rickettsia conorii
[11] = source organism: SARS coronavirus Tor2
[12] = source organism: Dengue virus 3 Martinique/1243/1999
[13] = source organism: Vaccinia virus WR
[14] = source organism: Mammarenavirus machupoense
[15] = source organism: Dengue virus 4 Philippines/H241/1956
[16] = source organism: Giardia lamblia ATCC 50803
[17] = source organism: Dengue virus 1 Singapore/S275/1990
[18] = source organism: Zaire ebolavirus
[19] = source organism: Mammarenavirus juninense
[20] = source organism: Dengue virus 2 Jamaica/1409/1983
[21] = source organism: Lymphocytic choriomeningitis virus (strain Armstrong)

KLNENIIRF
Kd (HLA-B*15:01): 152 nM | Kd (HLA-A*31:01 [1]; [10]): 1280 nM | Kd (HLA-A*11:01): 5910 nM | Kd (HLA-A*03:01 [2]; [10]): 554 nM | Kd (HLA-A*02:01 [3]): 1880 nM | Kd (HLA-A*69:01): 4750 nM | Kd (HLA-B*58:01): 68.6 nM

HEFVDEFYAY
Kd (HLA-B*40:01; [11]): 835 nM | Kd (HLA-B*44:02; [11]): 3500 nM | Kd (HLA-B*44:03; [11]): 85.9 nM | Kd (HLA-B*40:02): 331 nM | Kd (HLA-B*18:01): 44.2 nM | Kd (HLA-B*45:01): 7210 nM

FPQSNAPIQ
Kd (HLA-B*53:01; [12]): 69.8 nM

ADVFHLYLQY
Kd (HLA-B*40:01; [11]): 16500 nM | Kd (HLA-B*44:02; [11]): 2420 nM | Kd (HLA-B*44:03; [11]): 147 nM | Kd (HLA-B*40:02): ≥ 39800 nM | Kd (HLA-B*18:01): ≥ 20700 nM | Kd (HLA-B*45:01): 11400 nM

MSRRYSREK
Kd (HLA-A*30:01; [13]): 1.31 nM

RAREQISNL
Kd (HLA-A*30:01; source organism: Cowpox virus): 2.73 nM

TLRAAMISL
Kd (HLA-A*30:01; [13]): 0.714 nM | Kd (HLA-A*02:01 [4]): 2310 nM

VTEIGRVPSH
Kd (HLA-A*30:01; [12]): ≥ 22900 nM

SIQKNTIFK
Kd (HLA-A*31:01 [5]; [14]): 1890 nM | Kd (HLA-A*03:01 [6]; [14]): 10.4 nM | Kd (HLA-A*33:01; [14]): ≥ 22900 nM | Kd (HLA-A*68:01; [14]): 162 nM | Kd (HLA-A*30:01; [14]): 62.6 nM

NPRLCTREEF
Kd (HLA-B*53:01; [15]): 197 nM | Kd (HLA-B*35:01): 892 nM

MNQERRSLR
Kd (HLA-A*31:01 [1]; [16]): 118 nM | Kd (HLA-A*03:01 [2]; [16]): ≥ 20000 nM

HYAYMVPGW
IC50 (HLA-A*24:02 [7]; source organism: West Nile virus): 220 nM

TDFQSHQLW
Kd (HLA-B*44:02; [17]): 37 nM

ITTDSRCPTQ
Kd (HLA-A*30:01; [12]): 866 nM

IGEWAFWEN
IC50 (HLA-A*24:02 [7]; source organism: Sudan ebolavirus): 58800 nM

KAKEMNALS
Kd (HLA-A*30:01; [13]): 50.5 nM

KAQREIFSA
IC50 (HLA-A*24:02 [7]; source organism: Variola virus): 165 nM | IC50 (HLA-A*02:01 [8]): 2010 nM

RTSSDPGTN
IC50 (HLA-A*24:02 [7]; [18]): ≥ 98100 nM

SVIGTFVAEF
Kd (HLA-A*01:01; [19]): 3580 nM | Kd (HLA-A*32:01; [19]): 195 nM | Kd (HLA-A*29:02; [19]): 169 nM | Kd (HLA-A*30:02; [19]): 110 nM | Kd (HLA-A*26:01; [19]): 3.37 nM | Kd (HLA-A*30:01; [19]): 2420 nM

DFQESADSF
IC50 (HLA-A*24:02 [7]; [18]): 55000 nM

KAMWKYPFS
Kd (HLA-A*30:01; [13]): 250 nM

AEPPFGDSYI
Kd (HLA-B*40:01; [20]): 1990 nM | Kd (HLA-B*44:02; [20]): 432 nM | Kd (HLA-B*44:03; [20]): 79.3 nM

AVDPAKAYK
Kd (HLA-A*33:01; [11]): 3420 nM | Kd (HLA-A*68:01; [11]): 553 nM | Kd (HLA-A*31:01 [1]; source organism: SARS-CoV1): 293 nM

LTDFQSHQLW
Kd (HLA-A*01:01; [17]): 3680 nM | Kd (HLA-B*53:01; [17]): 1580 nM

EPDYEVDEDI
Kd (HLA-B*53:01; [15]): 1170 nM

NHALSELPET
Kd (HLA-A*30:01; [20]): 1240 nM

PYFGPAAEG
IC50 (HLA-A*24:02 [7]; [18]): 13000 nM

TTYLGPLSCK
Kd (HLA-A*31:01 [5]; [21]): 540 nM | Kd (HLA-A*03:01 [6]; [21]): 4.47 nM | Kd (HLA-A*33:01; [21]): 647 nM | Kd (HLA-A*68:01; [21]): 4.63 nM | Kd (HLA-A*30:01; [21]): 432 nM

YEDKVWDKY
Kd (HLA-A*01:01; [21]): 7020 nM | Kd (HLA-A*32:01; [21]): ≥ 77800 nM | Kd (HLA-A*29:02; [21]): ≥ 29900 nM | Kd (HLA-A*30:02; [21]): 2710 nM | Kd (HLA-A*24:02 [9]): ≥ 77500 nM | Kd (HLA-A*23:01): ≥ 77700 nM | Kd (HLA-A*26:01; [21]): ≥ 77900 nM | Kd (HLA-A*30:01; [21]): ≥ 32200 nM

Source: the Immune Epitope Database (IEDB)
